Measurements: patent CN112707964A
Numbering of substitutions follows the chain as printed. Values belong to the binder of their own block, whether it stands above or below them.

Biological target: 重组NT抗原(自产，130410) (human) (UniProt P16860)
Assay: BLI, antibody captured on AMC sensor, antigen in solution

UniProt P16860, sequence (P16860 27-102): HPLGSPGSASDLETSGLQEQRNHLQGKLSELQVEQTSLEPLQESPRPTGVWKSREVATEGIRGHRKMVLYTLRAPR

Kd: 5.31 nM
B1: WT 1-5 (antibody, from another filing)
heavy: QVRLQESGPSQVKPAQTLSLTCAISGPSLTTYYLDWVRHTPGKPPEWLAQMTKDANAVHNPTVRSRLSITRDTSKSQVFLKLTGVTTEDTAVYYCVKGLIDFGPGLLVTVSSASTTPPKVYPLTSCCGDTSSSIVTLGCLVSSYMPEPVTVTWNSGALTSGVHTFPAILQSSGLYSLSSVVTVPASTSGAQTFICNVAHPASSTKVDKRVEPGCPDPCKHCRCPPPELPGGPSVFIFPPKPKDTLTISGTPEVTCVVVDVGQDDPEVQFSWFVDNVEVRTARTKPREEQFNSTFRVVSALPIQHQDWTGGKEFKCKVHNEGLPAPIVRTISRTKGQAREPQVYVLAPPQEELSKSTLSVTCLVTGFYPDYIAVEWQKNGQPESEDKYGTTTSQLDADGSYFLYSRLRVDKNSWQEGDTYACVVMHEALHNHYTQKSISKPPGK
light: QAVLTQPSSVSRSLGQTVSITCSGSSDQVGPGDYLNWFQLIPGSAPKTLIFAASSRIRGVPDRFSGSRSGNTATLTINSLQAEDEADYYCGSANSRNYVWGSGTRLTVLSQPKSAPSVTLFPPSKEELDTNKATVVCLISDFYPGSVNVVWKADGSTINQNVKTTQASKQSNSKYAASSYLTLTGSEWKSKSSYTCEVTHEGSTVTKTVKPSECS

Kd: 9.63 nM
B2: WT 1-4 (antibody, from another filing)
heavy: B1 heavy with L29V, L34V, N60Q, V63L, L99V
light: QAVLTQPSSVSRSLGQTVSITCSGSSDQVGPGDYVNWFQLIPGSAPKTLIFAATSRIRGVPDRFSGSRSGNTATLTINSLQAEDEADYYCGSGNSRGGYVWGSGTRLTVLSQPKSAPSVTLFPPSKEELDTNKATVVCLISDFYPGSVNVVWKADGSTINQNVKTTQASKQSNSKYAASSYLTLTGSEWKSKSSYTCEVTHEGSTVTKTVKPSECS

Kd: 5.25 nM
B3: WT 1-6 (antibody, from another filing, V domains shown)
VH: QVRLQESGPSQVKPAQTLSLTCAISGPSITTYYVDWVRHTPGKPPEWLAQMTKDANAVHQPTIRSRLSITRDTSKSQVFLKLTGVTTEDTAVYYCVKGLIDWGPGLLVTVSS
V domain: QAVLTQPSSVSRSLGQTVSITCSGSSDQVGPGDYLNWFQLIPGSAPKTLIFAASSRLRGVPDRFSGSRSGNTATLTINSLQAEDEADYYCGSANSRGGYVWGSGTRLTVLS

Kd: 6.25 nM
B4: WT 1-1 (antibody, from another filing, V domains shown)
VH: B3 VH with I29V, V34I, Q60N, L99V
V domain: QAVLTQPSSVSRSLGQTVSITCSGSSDNVGPGDYINWFQLIPGSAPKTLIFAAYSRIRGVPDRFSGSRSGNTATLTINSLQAEDEADYYCGSANSRNYVWGSGTRLTVLS

Kd: 6.76 nM
B5: WT 1-7 (antibody, from another filing, V domains shown)
VH: B3 VH with I29V, V34L, I63V, L99V
V domain: B3 V domain with Q28N, L35I, S54Y, A93G

Kd: 8.36 nM
B6: WT 1-8 (antibody, from another filing, V domains shown)
VH: B3 VH with I29L, I63V, L99I
V domain: B4 V domain with I57V, A93P

Kd: 7.55 nM
B7: WT 1-9 (antibody, from another filing, V domains shown)
VH: B3 VH with I29V, V34I, I63L
V domain: B3 V domain with Q28N, L35V, S54Y, A93G

Kd: 6.74 nM
B8: WT 1-2 (antibody, from another filing, V domains shown)
VH: B3 VH with I29L, V34I, I63L, L99V
V domain: B4 V domain with I35L, Y54S, A93P
